Source: the supplement of paper PMC10266784

B1: library; numbered along this chain (parent)
chain: MAAAAAAAAEQQSSNGPVKKSMREKAVERRSVNKEHNSNFKAGYIPIDEDRLHKTGLRGRKGNLAICVIILLFILAVINLIITLVIWAVIRIGPNGCDSMEFHESGLLRFKQVSDMGVIHPLYKSTVGGRRNENLVITGNNQPIVFQQGTTKLSVENNKTSITSDIGMQFFDPRTQNILFSTDYETHEFHLPSGVKSLNVQKASTERITSNATSDLNIKVDGRAIVRGNEGVFIMGKTIEFHMGGNMELKAENSIILNGSVMVSTTRLPSSSSGDQLGSGDWVRYKLCMCADGTLFKVQVTSQNMGCQISDNPCGNTH

Variants of: B1
Assay: SGCB cell-surface expression functional score (HA stain, bin4 vs bin1, normalised to synonymous) (log10 ratio); higher = more cell-surface SGCB (functional)
Description: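 Deep mutational scan of full-length human SGCB (YFP-SGCB-HA, NNN codon sublibraries A-F) delivered by lentivirus at low MOI into ADG-HEK293 cells stably expressing SGCA, SGCD and SGCG. YFP-positive cells were stained for surface HA on unpermeabilized cells and FACS-sorted into bins. The functional score is log10(frequency in high bin 4 / frequency in low bin 1), normalised per chunk so that synonymous variants have mean 0 and SD 0.5. Scores are the median over codons and over duplicate biological replicates; scores below -0.5 are called non-functional. Scale: negative means deleterious.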

Compared with MAAAAAAAAEQQSSNGPVKKSMREKAVERRSVNKPHNSNFKAGYIPIDEDRLHKTGLRGRKGNLAICVIILLFILAVINLIITLVIWAVIRIGPNGCDSMEFHESGLLRFKQVSDMGVIHPLYKSTVGGRRNENLVITGNNQPIVFQQGTTKLSVENNKTSITSDIGMQFFDPRTQNILFSTDYETHEFHLPSGVKSLNVQKASTERITSNATSDLNIKVDGRAIVRGNEGVFIMGKTIEFHMGGNMELKAENSIILNGSVMVSTTRLPSSSSGDQLGSGDWVRYKLCMCADGTLFKVQVTSQNMGCQISDNPCGNTH [E35P], MAAAAAAAAEQQSSNGPVKKSMREKAVERRSVNKRHNSNFKAGYIPIDEDRLHKTGLRGRKGNLAICVIILLFILAVINLIITLVIWAVIRIGPNGCDSMEFHESGLLRFKQVSDMGVIHPLYKSTVGGRRNENLVITGNNQPIVFQQGTTKLSVENNKTSITSDIGMQFFDPRTQNILFSTDYETHEFHLPSGVKSLNVQKASTERITSNATSDLNIKVDGRAIVRGNEGVFIMGKTIEFHMGGNMELKAENSIILNGSVMVSTTRLPSSSSGDQLGSGDWVRYKLCMCADGTLFKVQVTSQNMGCQISDNPCGNTH [E35R] is higher in “SGCB cell-surface expression functional score (log10)” value: -0.21 for the first, 0.18 for the second.

Going from MAAAAAAAAEQQSSNGPVKKSMREKAVERRSVNKVHNSNFKAGYIPIDEDRLHKTGLRGRKGNLAICVIILLFILAVINLIITLVIWAVIRIGPNGCDSMEFHESGLLRFKQVSDMGVIHPLYKSTVGGRRNENLVITGNNQPIVFQQGTTKLSVENNKTSITSDIGMQFFDPRTQNILFSTDYETHEFHLPSGVKSLNVQKASTERITSNATSDLNIKVDGRAIVRGNEGVFIMGKTIEFHMGGNMELKAENSIILNGSVMVSTTRLPSSSSGDQLGSGDWVRYKLCMCADGTLFKVQVTSQNMGCQISDNPCGNTH [E35V] to MAAAAAAAAEQQSSNGPVKKSMREKAVERRSVNKLHNSNFKAGYIPIDEDRLHKTGLRGRKGNLAICVIILLFILAVINLIITLVIWAVIRIGPNGCDSMEFHESGLLRFKQVSDMGVIHPLYKSTVGGRRNENLVITGNNQPIVFQQGTTKLSVENNKTSITSDIGMQFFDPRTQNILFSTDYETHEFHLPSGVKSLNVQKASTERITSNATSDLNIKVDGRAIVRGNEGVFIMGKTIEFHMGGNMELKAENSIILNGSVMVSTTRLPSSSSGDQLGSGDWVRYKLCMCADGTLFKVQVTSQNMGCQISDNPCGNTH [E35L], the “SGCB cell-surface expression functional score (log10)” value falls from 0.1 to -0.2.

MAAAAAAAAEQQSSNGPVKKSMREKAVERRSVNKKHNSNFKAGYIPIDEDRLHKTGLRGRKGNLAICVIILLFILAVINLIITLVIWAVIRIGPNGCDSMEFHESGLLRFKQVSDMGVIHPLYKSTVGGRRNENLVITGNNQPIVFQQGTTKLSVENNKTSITSDIGMQFFDPRTQNILFSTDYETHEFHLPSGVKSLNVQKASTERITSNATSDLNIKVDGRAIVRGNEGVFIMGKTIEFHMGGNMELKAENSIILNGSVMVSTTRLPSSSSGDQLGSGDWVRYKLCMCADGTLFKVQVTSQNMGCQISDNPCGNTH [E35K] and MAAAAAAAAEQQSSNGPVKKSMREKAVERRSVNKMHNSNFKAGYIPIDEDRLHKTGLRGRKGNLAICVIILLFILAVINLIITLVIWAVIRIGPNGCDSMEFHESGLLRFKQVSDMGVIHPLYKSTVGGRRNENLVITGNNQPIVFQQGTTKLSVENNKTSITSDIGMQFFDPRTQNILFSTDYETHEFHLPSGVKSLNVQKASTERITSNATSDLNIKVDGRAIVRGNEGVFIMGKTIEFHMGGNMELKAENSIILNGSVMVSTTRLPSSSSGDQLGSGDWVRYKLCMCADGTLFKVQVTSQNMGCQISDNPCGNTH [E35M] are within 0.2 log units of each other in “SGCB cell-surface expression functional score (log10)” value: 0.23 for the first, 0.1 for the second.

Going from MAAAAAAAAEQQSSNGPVKKSMREKAVERRSVNKNHNSNFKAGYIPIDEDRLHKTGLRGRKGNLAICVIILLFILAVINLIITLVIWAVIRIGPNGCDSMEFHESGLLRFKQVSDMGVIHPLYKSTVGGRRNENLVITGNNQPIVFQQGTTKLSVENNKTSITSDIGMQFFDPRTQNILFSTDYETHEFHLPSGVKSLNVQKASTERITSNATSDLNIKVDGRAIVRGNEGVFIMGKTIEFHMGGNMELKAENSIILNGSVMVSTTRLPSSSSGDQLGSGDWVRYKLCMCADGTLFKVQVTSQNMGCQISDNPCGNTH [E35N] to MAAAAAAAAEQQSSNGPVKKSMREKAVERRSVNKYHNSNFKAGYIPIDEDRLHKTGLRGRKGNLAICVIILLFILAVINLIITLVIWAVIRIGPNGCDSMEFHESGLLRFKQVSDMGVIHPLYKSTVGGRRNENLVITGNNQPIVFQQGTTKLSVENNKTSITSDIGMQFFDPRTQNILFSTDYETHEFHLPSGVKSLNVQKASTERITSNATSDLNIKVDGRAIVRGNEGVFIMGKTIEFHMGGNMELKAENSIILNGSVMVSTTRLPSSSSGDQLGSGDWVRYKLCMCADGTLFKVQVTSQNMGCQISDNPCGNTH [E35Y], the “SGCB cell-surface expression functional score (log10)” value rises from 0.01 to 0.26.

Compared with MAAAAAAAAEQQSSNGPVKKSMREKAVERRSVNKWHNSNFKAGYIPIDEDRLHKTGLRGRKGNLAICVIILLFILAVINLIITLVIWAVIRIGPNGCDSMEFHESGLLRFKQVSDMGVIHPLYKSTVGGRRNENLVITGNNQPIVFQQGTTKLSVENNKTSITSDIGMQFFDPRTQNILFSTDYETHEFHLPSGVKSLNVQKASTERITSNATSDLNIKVDGRAIVRGNEGVFIMGKTIEFHMGGNMELKAENSIILNGSVMVSTTRLPSSSSGDQLGSGDWVRYKLCMCADGTLFKVQVTSQNMGCQISDNPCGNTH [E35W], MAAAAAAAAEQQSSNGPVKKSMREKAVERRSVNKSHNSNFKAGYIPIDEDRLHKTGLRGRKGNLAICVIILLFILAVINLIITLVIWAVIRIGPNGCDSMEFHESGLLRFKQVSDMGVIHPLYKSTVGGRRNENLVITGNNQPIVFQQGTTKLSVENNKTSITSDIGMQFFDPRTQNILFSTDYETHEFHLPSGVKSLNVQKASTERITSNATSDLNIKVDGRAIVRGNEGVFIMGKTIEFHMGGNMELKAENSIILNGSVMVSTTRLPSSSSGDQLGSGDWVRYKLCMCADGTLFKVQVTSQNMGCQISDNPCGNTH [E35S] is lower in “SGCB cell-surface expression functional score (log10)” value: 0.28 for the first, 0.03 for the second.

MAAAAAAAAEQQSSNGPVKKSMREKAVERRSVNKTHNSNFKAGYIPIDEDRLHKTGLRGRKGNLAICVIILLFILAVINLIITLVIWAVIRIGPNGCDSMEFHESGLLRFKQVSDMGVIHPLYKSTVGGRRNENLVITGNNQPIVFQQGTTKLSVENNKTSITSDIGMQFFDPRTQNILFSTDYETHEFHLPSGVKSLNVQKASTERITSNATSDLNIKVDGRAIVRGNEGVFIMGKTIEFHMGGNMELKAENSIILNGSVMVSTTRLPSSSSGDQLGSGDWVRYKLCMCADGTLFKVQVTSQNMGCQISDNPCGNTH [E35T] and MAAAAAAAAEQQSSNGPVKKSMREKAVERRSVNKQHNSNFKAGYIPIDEDRLHKTGLRGRKGNLAICVIILLFILAVINLIITLVIWAVIRIGPNGCDSMEFHESGLLRFKQVSDMGVIHPLYKSTVGGRRNENLVITGNNQPIVFQQGTTKLSVENNKTSITSDIGMQFFDPRTQNILFSTDYETHEFHLPSGVKSLNVQKASTERITSNATSDLNIKVDGRAIVRGNEGVFIMGKTIEFHMGGNMELKAENSIILNGSVMVSTTRLPSSSSGDQLGSGDWVRYKLCMCADGTLFKVQVTSQNMGCQISDNPCGNTH [E35Q] are within 0.2 log units of each other in “SGCB cell-surface expression functional score (log10)” value: 0.06 for the first, -0.06 for the second.

Going from MAAAAAAAAEQQSSNGPVKKSMREKAVERRSVNKEANSNFKAGYIPIDEDRLHKTGLRGRKGNLAICVIILLFILAVINLIITLVIWAVIRIGPNGCDSMEFHESGLLRFKQVSDMGVIHPLYKSTVGGRRNENLVITGNNQPIVFQQGTTKLSVENNKTSITSDIGMQFFDPRTQNILFSTDYETHEFHLPSGVKSLNVQKASTERITSNATSDLNIKVDGRAIVRGNEGVFIMGKTIEFHMGGNMELKAENSIILNGSVMVSTTRLPSSSSGDQLGSGDWVRYKLCMCADGTLFKVQVTSQNMGCQISDNPCGNTH [H36A] to MAAAAAAAAEQQSSNGPVKKSMREKAVERRSVNKECNSNFKAGYIPIDEDRLHKTGLRGRKGNLAICVIILLFILAVINLIITLVIWAVIRIGPNGCDSMEFHESGLLRFKQVSDMGVIHPLYKSTVGGRRNENLVITGNNQPIVFQQGTTKLSVENNKTSITSDIGMQFFDPRTQNILFSTDYETHEFHLPSGVKSLNVQKASTERITSNATSDLNIKVDGRAIVRGNEGVFIMGKTIEFHMGGNMELKAENSIILNGSVMVSTTRLPSSSSGDQLGSGDWVRYKLCMCADGTLFKVQVTSQNMGCQISDNPCGNTH [H36C], the “SGCB cell-surface expression functional score (log10)” value falls from 0.35 to -0.16.

MAAAAAAAAEQQSSNGPVKKSMREKAVERRSVNKEGNSNFKAGYIPIDEDRLHKTGLRGRKGNLAICVIILLFILAVINLIITLVIWAVIRIGPNGCDSMEFHESGLLRFKQVSDMGVIHPLYKSTVGGRRNENLVITGNNQPIVFQQGTTKLSVENNKTSITSDIGMQFFDPRTQNILFSTDYETHEFHLPSGVKSLNVQKASTERITSNATSDLNIKVDGRAIVRGNEGVFIMGKTIEFHMGGNMELKAENSIILNGSVMVSTTRLPSSSSGDQLGSGDWVRYKLCMCADGTLFKVQVTSQNMGCQISDNPCGNTH [H36G] and MAAAAAAAAEQQSSNGPVKKSMREKAVERRSVNKEDNSNFKAGYIPIDEDRLHKTGLRGRKGNLAICVIILLFILAVINLIITLVIWAVIRIGPNGCDSMEFHESGLLRFKQVSDMGVIHPLYKSTVGGRRNENLVITGNNQPIVFQQGTTKLSVENNKTSITSDIGMQFFDPRTQNILFSTDYETHEFHLPSGVKSLNVQKASTERITSNATSDLNIKVDGRAIVRGNEGVFIMGKTIEFHMGGNMELKAENSIILNGSVMVSTTRLPSSSSGDQLGSGDWVRYKLCMCADGTLFKVQVTSQNMGCQISDNPCGNTH [H36D] are within 0.2 log units of each other in “SGCB cell-surface expression functional score (log10)” value: 0.11 for the first, 0.26 for the second.

Going from MAAAAAAAAEQQSSNGPVKKSMREKAVERRSVNKEFNSNFKAGYIPIDEDRLHKTGLRGRKGNLAICVIILLFILAVINLIITLVIWAVIRIGPNGCDSMEFHESGLLRFKQVSDMGVIHPLYKSTVGGRRNENLVITGNNQPIVFQQGTTKLSVENNKTSITSDIGMQFFDPRTQNILFSTDYETHEFHLPSGVKSLNVQKASTERITSNATSDLNIKVDGRAIVRGNEGVFIMGKTIEFHMGGNMELKAENSIILNGSVMVSTTRLPSSSSGDQLGSGDWVRYKLCMCADGTLFKVQVTSQNMGCQISDNPCGNTH [H36F] to MAAAAAAAAEQQSSNGPVKKSMREKAVERRSVNKEINSNFKAGYIPIDEDRLHKTGLRGRKGNLAICVIILLFILAVINLIITLVIWAVIRIGPNGCDSMEFHESGLLRFKQVSDMGVIHPLYKSTVGGRRNENLVITGNNQPIVFQQGTTKLSVENNKTSITSDIGMQFFDPRTQNILFSTDYETHEFHLPSGVKSLNVQKASTERITSNATSDLNIKVDGRAIVRGNEGVFIMGKTIEFHMGGNMELKAENSIILNGSVMVSTTRLPSSSSGDQLGSGDWVRYKLCMCADGTLFKVQVTSQNMGCQISDNPCGNTH [H36I], the “SGCB cell-surface expression functional score (log10)” value rises from -0.16 to 0.09.

For MAAAAAAAAEQQSSNGPVKKSMREKAVERRSVNKEENSNFKAGYIPIDEDRLHKTGLRGRKGNLAICVIILLFILAVINLIITLVIWAVIRIGPNGCDSMEFHESGLLRFKQVSDMGVIHPLYKSTVGGRRNENLVITGNNQPIVFQQGTTKLSVENNKTSITSDIGMQFFDPRTQNILFSTDYETHEFHLPSGVKSLNVQKASTERITSNATSDLNIKVDGRAIVRGNEGVFIMGKTIEFHMGGNMELKAENSIILNGSVMVSTTRLPSSSSGDQLGSGDWVRYKLCMCADGTLFKVQVTSQNMGCQISDNPCGNTH [H36E], the “SGCB cell-surface expression functional score (log10)” value was 0.05.
